From US20240140995A1 (ROCHE DIAGNOSTICS OPERATIONS, published 2024)

B1: E. coli IM-7, singly biotinylated (other)
chain: MELKNSISDYTEAEFVQLLKEIEKENVAATDDVLDVLLEHFVKITEHPDGTDLIYYPSDNRDDSPEGIVKEIKEWRAANGKPGFKQG
B2: E. coli ColE-7 (other)
chain: ESKRNKPGKATGKGKPVNNKWLNNAGKDLGSPVPDRIANKLRDKEFKSFDDFRKKFWEEVSKDPELSKQFSRNNNDRMKVGKAPKTRTQDVSGKRTSFELHHEKPISQNGGVYDMDNISVVTPKRHIDIHRGK

What was measured:
E. coli ColE-7 [1] = target: B2; test: SPR Biacore T200, 37 C, single cycle kinetics
E. coli ColE-7 [2] = target: B2; test: SPR Biacore T200, 37 C, single cycle kinetics; biotinylated immunity protein on streptavidin sensor, colicin analyte 1.1-90 nM
[3] = target: GthIM (Geobacillus thermoglucosidasius immunity protein, C18A, engineered), singly biotinylated (Geobacillus thermoglucosidasius); test: as above

| Binder | complex half-life t/2-diss (E. coli ColE-7 [1]) | Kd (E. coli ColE-7 [2]) | MR (Molar Ratio, binding stoichiometry) (E. coli ColE-7 [2]) | koff (E. coli ColE-7 [2]) | kon (E. coli ColE-7 [2]) | Kd [3] | koff [3] | kon [3] |
| --- | --- | --- | --- | --- | --- | --- | --- | --- |
| B1 | > 19.2 h | < 0.0057 nM | 1.2 | < 1e-05 s⁻¹ | 1.8e+06 M⁻¹ s⁻¹ | – | – | – |
| B2 | – | – | – | – | – | 13 nM | 0.1 s⁻¹ | 1e+07 M⁻¹ s⁻¹ |
